Test results published in publication PMC7043024.

Target: LSD1 (lysine specific demethylase 1), full length (UniProt O60341)

K (M,post) (post-equilibrium apparent Michaelis-Menten constant) of the demethylation of K4meK9 by 200 nM CoREST ternary complex, APO, real-time 1H NMR assay: 2.3 µM | K (M,post) (post-equilibrium apparent Michaelis-Menten constant) of the demethylation of K4meK9 by the CoREST ternary complex pre-equilibrated with 5 μM MS275 HDAC inhibitor, real-time 1H NMR assay: 9.2 µM
Substance: H3K4me 1-21 peptide
